Measurements taken from article PMC11070302 (Drug resistance updates : reviews and commentaries in …, 2024).

Biological target: the molecule itself
Assay: non-reducing SDS-PAGE and protein staining

B1: PEPD^G278D, a recombinant and enzymatically inactive mutant of human peptidase D (enzyme, UniProt P12955 1-493, looked up)
chain: MAAATGPSFWLGNETLKVPLALFALNRQRLCERLRKNPAVQAGSIVVLQGGEETQRYCTDTGVLFRQESFFHWAFGVTEPGCYGVIDVDTGKSTLFVPRLPASHATWMGKIHSKEHFKEKYAVDDVQYVDEIASVLTSQKPSVLLTLRGVNTDSGSVCREASFDGISKFEVNNTILHPEIVECRVFKTDMELEVLRYTNKISSEAHREVMKAVKVGMKEYELESLFEHYCYSRGGMRHSSYTCICGSGENSAVLHYGHAGAPNDRTIQNGDMCLFDMDGEYYCFASDITCSFPANGKFTADQKAVYEAVLRSSRAVMGAMKPGVWWPDMHRLADRIHLEELAHMGILSGSVDAMVQAHLGAVFMPHGLGHFLGIDVHDVGGYPEGVERIDEPGLRSLRTARHLQPGMVLTVEPGIYFIDHLLDEALADPARASFLNREVLQRFRGFGGVRIEEDVVVTDSGIELLTCVPRTVEEIEACMAGCDKAFTPFSGPK
stoichiometry N: 2
